Results taken from patent US20050003400A1 (Amgen, published 2005).

B1: murine OPG binding protein (full length, 316 aa, encoded by clone 32D-F3), on the cell surface (ligand)
chain: MRRASRDYGKYLRSSEEMGSGPGVPHEGPLHPAPSAPAPAPPPAASRSMFLALLGLGLGQVVCSIALFLYFRAQMDPNRISEDSTHCFYRILRLHENAGLQDSTLESEDTLPDSCRRMKQAFQGAVQKELQHIVGPQRFSGAPAMMEGSWLDVAQRGKPEAQPFAHLTINAASIPSGSHKVTLSSWYHDRGWAKISNMTLSNGKLRVNQDGFYYLYANICFRHHETSGSVPTDYLQLMVYVVKTSIKIPSSHNLMKGGSTKNWSGNSEFHFYSINVGGFFKLRAGEEISIQVSNPSLLDPDQDATYFGAFKVQDID
notes: Type II transmembrane protein; also called OPGbp; OPG-bp
B2: recombinant mouse OPG [22-194]-Fc fusion protein (Fc fusion, UniProt O08712 22-194, looked up)
chain: ETLPPKYLHYDPETGHQLLCDKCAPGTYLKQHCTVRRKTLCVPCPDHSYTDSWHTSDECVYCSPVCKELQSVKQECNRTHNRVCECEEGRYLEIEFCLKHRSCPPGSGVVQAGTPERNTVCKKCPDGFFSGETSSKAPCIKHTNCSTFGLLLIQKGNATHDNVCSGNREATQK
notes: also called OPG-Fc; not shown: Fc domain, detected with anti-human IgG
B3: recombinant human OPG [22-201]-Fc fusion protein (Fc fusion, UniProt O00300 22-201, looked up)
chain: ETFPPKYLHYDEETSHQLLCDKCPPGTYLKQHCTAKWKTVCAPCPDHYYTDSWHTSDECLYCSPVCKELQYVKQECNRTHNRVCECKEGRYLEIEFCLKHRSCPPGFGVVQAGTPERNTVCKRCPDGFFSNETSSKAPCRKHTNCSVFGLLLTQKGNATHDNICSGNSESTQKCGIDVTL
notes: construct described in U.S. Ser. No. 08/706,945; also called OPG-Fc; OPG Fc fusion protein; not shown: human IgG1 Fc domain
B4: chimeric ATAR extracellular domain-Fc fusion protein (Fc fusion, UniProt Q92956 39-202, looked up)
chain: LPSCKEDEYPVGSECCPKCSPGYRVKEACGELTGTVCEPCPPGTYIAHLNGLSKCLQCQMCDPAMGLRASRNCSRTENAVCGCSPGHFCIVQDGDHCAACRAYATSSPGQRVQKGGTESQDTLCQNCPPGTFSPNGTLEECQHQTKCSWLVTKAGAGTSSSHWV
notes: extracellular domain; also called sATAR-Fc; ATAR-Fc fusion protein; not shown: human IgG1 Fc domain

What was measured:
purified human IgG1 Fc = target: T1, purified human IgG1 Fc (human, UniProt P01857-1 104-330 = IgG part, limits assumed); assay: staining of 32D cells, FACS
T1 construct: domain: Fc
Experimental: Cell lines that grew as adherent cultures in vitro were treated using the following methods: Cells were plated into 24 well tissue culture plates (Falcon), then allowed to grow to approximately 80% confluency. The growth media was then removed, and the adherent cultures were washed with phosphate buffered saline (PBS) (Gibco) containing 1% fetal calf serum (FCS). […] The OPG-Fc fusion protein solution was discarded, and the cells were washed in PBS-FCS solution as described above. The cultures were then exposed to phycoeyrthrin-conguated goat F(ab′) anti-human IgG secondary antibody (Southern Biotechnology Associates Cat. # 2043-09) diluted into PBS-FCS. After a 30-45 min incubation at 0° C., the solution was discarded, and the cultures were washed as described above. The cells were then analyzed by immunofluorescent microscopy to detect cell lines which express a cell surface OPG binding protein.
Suspension cell cultures were analyzed in a similar manner with the following modifications: The diluent and wash buffer consisted of calcium- and magnesium-free phosphate buffered saline containing 1% FCS. […] The cells were then analyzed by fluorescence activated cell sorting (FACS) using a Becton Dickinson FACscan.

[1] = target: B1; assay: staining of 32D cells with 5 ug/ml OPG-Fc and PE anti-human IgG, FACS
[2] = target: B1; assay: immunostaining of COS-7 cells transfected with 32D-F3
Experimental: Arrayed pools of 32D cDNA expression library were individually lipofected into COS-7 cultures, then assayed for the acquisition of a cell surface OPG binding protein. To do this, COS-7 cells were plated at a density of 1×10⁶ per ml in six-well tissue culture plates (Costar), then cultured overnight in DMEM (Gibco) containing 10% FCS. Approximately 2 μg of plasmid DNA from each pool was diluted into 0.5 ml of serum-free DMEM, then sterilized by centrifugation through a 0.2 μm Spin-X column (Costar). Simultaneously, 10 μl of Lipofectamine (Life Technologies Cat # 18324-012) was added to a separate tube containing 0.5 ml of serum-free DMEM. The DNA and Lipofectamine solutions were mixed, and allowed to incubate at RT for 30 min. The COS-7 cell cultures were then washed with serum-free DMEM, and the DNA-lipofectamine complexes were exposed to the cultures for 2-5 hr at 37° C. After this period, the media was removed, and replaced with DMEM containing 10% FCS. The cells were then cultured for 48 hr at 37° C.
Using this approach, a total of approximately 300,000 independent 32D cDNA clones were screened, represented by 300 transfected pools of 1000 clones each. A single well was identified that contained cells which acquired the ability to be specifically decorated by the OPG-Fc fusion protein. […]

| binding result [1] | also measured | Binder |
| --- | --- | --- |
| – | binding result (purified human IgG1 Fc): no binding | B1 |
| binds | – | B2 |
| binds | – | B3 |
| – | binding result [2]: no binding | B4 |
